Patent US20230406937A1 (JANUX THERAPEUTICS, published 2023)
One block for each binder: values may come before it.

Legend:
[1] = molecular target: T1, biotinylated human CD28 (human, UniProt P10747 19-152, limits assumed, biotinylated (site not stated)); experiment: ELISA, biotinylated antigen captured on neutravidin plates, HRP secondary antibody
T1 construct: also called Human CD28-Biotin
Description: (§1) The polypeptide complex molecules were evaluated for their ability to bind human PDL1 or CD28 in a standard enzyme linked immunosorbent assay (ELISA) format. […] Polypeptide complex molecules diluted in buffer were then added to the antigen coated plates. Bound polypeptide complex was detected using a standard horse radish peroxidase conjugate secondary antibody.

[2] = molecular target: T2, biotinylated human PD-L1 (human, UniProt Q9NZQ7 19-238, limits assumed, biotinylated (site not stated)); experiment: as above
T2 construct: also called Human PDL1-biotin
Description: as §1

EC50 [1]: 0.91 nM
EC50 [2]: 0.11 nM
B1: Ab-5 (bispecific antibody)
light: QSALTQPASVSGSPGQSITISCTGTSSDVGGYNYVSWYQQHPGKAPKLMIYDVSNRPSGVSNRFSGSKSGNTASLTISGLQAEDEADYYCSSYTSSSTRVFGTGTKVTVLGQPKANPTVTLFPPSSEELQANKATLVCLISDFYPGAVTVAWKADGSPVKAGVETTKPSKQSNNKYAASSYLSLTPEQWKSHRSYSCQVTHEGSTVEKTVAPTECS
heavy: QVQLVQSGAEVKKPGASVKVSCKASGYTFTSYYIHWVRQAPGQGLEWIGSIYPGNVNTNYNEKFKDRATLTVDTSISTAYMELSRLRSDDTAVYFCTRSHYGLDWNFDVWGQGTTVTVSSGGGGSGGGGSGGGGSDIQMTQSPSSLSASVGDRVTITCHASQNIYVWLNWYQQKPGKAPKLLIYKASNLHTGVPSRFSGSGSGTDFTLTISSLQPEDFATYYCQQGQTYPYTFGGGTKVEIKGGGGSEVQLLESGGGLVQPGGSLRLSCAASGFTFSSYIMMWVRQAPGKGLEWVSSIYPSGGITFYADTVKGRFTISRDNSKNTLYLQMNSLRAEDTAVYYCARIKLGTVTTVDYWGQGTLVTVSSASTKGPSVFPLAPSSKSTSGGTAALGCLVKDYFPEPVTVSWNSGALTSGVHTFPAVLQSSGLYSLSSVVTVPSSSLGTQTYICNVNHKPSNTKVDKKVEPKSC
notes: Anti-CD28 scFv fused to the heavy chain of anti-PD-L1 Fab 3; no Fc

EC50 [1]: 1.89 nM
EC50 [2]: 0.28 nM
B2: Ab-6 (bispecific antibody)
light: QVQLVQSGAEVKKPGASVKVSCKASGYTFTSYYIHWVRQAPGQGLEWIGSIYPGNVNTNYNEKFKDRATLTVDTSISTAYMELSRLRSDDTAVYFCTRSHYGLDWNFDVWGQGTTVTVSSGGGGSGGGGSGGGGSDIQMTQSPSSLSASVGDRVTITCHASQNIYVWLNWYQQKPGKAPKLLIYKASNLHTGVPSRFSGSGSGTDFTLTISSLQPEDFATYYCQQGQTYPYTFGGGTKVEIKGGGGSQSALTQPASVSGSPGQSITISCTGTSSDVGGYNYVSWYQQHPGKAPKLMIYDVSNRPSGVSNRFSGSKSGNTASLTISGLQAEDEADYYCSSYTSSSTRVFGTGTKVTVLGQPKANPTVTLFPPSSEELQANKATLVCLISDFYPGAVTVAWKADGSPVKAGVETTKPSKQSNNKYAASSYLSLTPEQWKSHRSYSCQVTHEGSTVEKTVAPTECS
heavy: EVQLLESGGGLVQPGGSLRLSCAASGFTFSSYIMMWVRQAPGKGLEWVSSIYPSGGITFYADTVKGRFTISRDNSKNTLYLQMNSLRAEDTAVYYCARIKLGTVTTVDYWGQGTLVTVSSASTKGPSVFPLAPSSKSTSGGTAALGCLVKDYFPEPVTVSWNSGALTSGVHTFPAVLQSSGLYSLSSVVTVPSSSLGTQTYICNVNHKPSNTKVDKKVEPKSC
notes: Anti-CD28 scFv fused to the light chain of anti-PD-L1 Fab 3; no Fc
